B1: MBD3C_(40-51) peptide (methyl-CpG binding domain 3 isoform C, WIN motif) (peptide)
peptide: GAARCRVFSPQG
notes: numbers count on: isoform MBD3C; also called MBD3C peptide; MBD3C WIN motif; source: synthetic peptide (GenScript)
B2: MBD3C_(40-51) (R43K) peptide (peptide)
peptide: GAAKCRVFSPQG
notes: numbers count on: isoform MBD3C; also called MBD3C^R43K; source: synthetic peptide (GenScript)
B3: MBD3C_(40-51) (F47A) peptide (peptide)
peptide: GAARCRVASPQG
notes: numbers count on: isoform MBD3C; also called MBD3C^F47A; source: synthetic peptide (GenScript)
B4: MBD3C_(40-51) (F47H) peptide (peptide)
peptide: GAARCRVHSPQG
notes: numbers count on: isoform MBD3C; also called MBD3C^F47H; source: synthetic peptide (GenScript)
B5: MBD3C_(40-51) (R45E) peptide (peptide)
peptide: GAARCEVFSPQG
notes: numbers count on: isoform MBD3C; also called MBD3C^R45E; source: synthetic peptide (GenScript)

Assays:
[1] = target: WD repeat-containing protein 5 (WDR5), truncated construct, residues 24-334 (mouse, UniProt P61965 24-334); assay: ITC; peptide (0.5 to 1.0 mM) titrated into WDR5 protein (44.5 μM) in the cell; 20 °C; Buffer D (20 mM Tris-HCl, 200 mM NaCl, pH 7.5); single binding site model; details: both partners purified
[2] = target: WDR5 (residues 24-334) D107S (mouse, UniProt P61965 24-334, D107S); assay: as above; details: both partners purified

Binder | Kd [1] [nM] | dH [1] [kcal/mol] | stoichiometry N [1] | Kd [2] [nM] | dH [2] [kcal/mol] | stoichiometry N [2]
B1 | 130 ± 20 | -11.4 ± 0.13 | 1.06 | 10800 ± 1030 | -5.4 ± 0.17 | 1.34
B2 | 1310 ± 210 | -15 ± 0.52 | 1.17 |  |  | 
B3 | 650 ± 30 | -7.32 ± 0.05 | 1.34 |  |  | 
B4 | 1010 ± 40 | -7.8 ± 0.04 | 0.99 |  |  | 
B5 | 670 ± 60 | -7.49 ± 0.08 | 1.25 |  |  | 

— publication PMC11261779, “Structural studies of WDR5 in complex with MBD3C WIN motif reveal a unique binding mode” (The Journal of Biological Chemistry, 2024)
